Assay results: article doi:10.1101/2025.05.22.653117

Key:
[1] = target: MbTEC^PH (R28E) (Monosiga brevicollis); test: FP; settings: domain or fragment
[2] = target: MbTEC^PH (isolated PH domain of Monosiga brevicollis TEC), wild type, labeled with Atto488 (Monosiga brevicollis); test: fluorescence polarisation
[3] = target: MbTEC^PH (R28E) (Monosiga brevicollis); test: fluorescence polarisation

Row | Substance | Kd [1] [µM] | Kd [2] [µM] | fold weakening against wild-type MbTEC^PH [3] [fold]
1 | MbTEC^32K (SH3-SH2-kinase module of Monosiga brevicollis TEC), wild type | 22.4 |  | 
2 | MbTEC^32K (SH3-SH2-kinase module of Monosiga brevicollis TEC), wild type (domain or fragment) |  | 4 | 5
